{"source": "paper PMC5749897", "about": "(PLoS Pathogens, 2017)", "binders": {"B1": {"name": "monoclonal antibody AR3C (antibody, V domains shown)", "VH": "VQLLEQSGAEVKKPGSSVKVSCETSGGTFDNYALNWVRQAPGQGLEWIGGVVPLFGTTRNAQKFQGRVTISDDKSTGTGHMELRSLRSEDTAVYYCVRSVTPRYCGGGFCYGEFDYWGQGTLVTVSS", "VL": "EIELTQSPATLSVSPGERATLSCRASQSVSSNLAWYQQKPGQAPRLLIYGASTRATGIPARFSGSGSGTEFTLTVSRLEPEDSAVYFCQQYYRSPLTFGGGTKVEIK", "notes": "also called mAb AR3C"}}, "molecular_target": "T1, wild-type HCV E1E2 (genotype 1a, strain H77) expression construct with C-terminal V5 epitope tag (Hepatitis C virus genotype 1a, strain …, strain)", "T1 construct": "also called wild-type E1E2; E1E2 complex; source: HEK-293T, transfected, in fixed and permeabilised cells; not shown: V5, C-terminal, kept", "experiment": "flow cytometry on cells; E1E2 library clones in HEK-293T, 22 h, fixed in 4% paraformaldehyde, permeabilised with 0.1% saponin; stained with mAb (0.33 to 2.0 ug/ml) or CD81-LEL-Fc, Alexa Fluor 488 secondary antibody; Intellicyt HTFC; signal as percent of wild-type E1E2 after subtraction of mock", "settings": "one partner purified"}
{"binder": "B1", "values": [{"measurement": "binding result", "result": "binds"}]}
